# Reference: paper PMC10092650
# Where two headings read alike, the source gives them in different places.
# Legend:
# [1] = target: doubly stabilized microtubules (GMPCPP and paclitaxel) (UniProt Q6B856); assay: co-sedimentation
# [2] = target: doubly stabilized microtubules (GMPCPP and paclitaxel) (UniProt Q6B856); assay: co-sedimentation; remark: listed apart in the source
# [3] = target: X-rhodamine-labeled dynamic microtubules nucleated from GMPCPP-stabilized Cy5 MT seeds (UniProt Q6B856); assay: dynamic MT seed assay
# [4] = target: GMPCPP-stabilized HyLite 647/biotin-labeled microtubules (bovine) (UniProt Q6B856); assay: single-molecule TIRF microscopy
# [5] = target: GMPCPP-stabilized HyLite 647/biotin-labeled microtubules (bovine) (UniProt Q6B856); assay: single-molecule TIRF microscopy; remark: listed apart in the source
substance,measurement,setting,value
YPet-Kif18B(605-828)-NLS1/2 (from UniProt Q86Y91-6 605-828) (domain or fragment),fold increase in the Kd for MT binding relative to YPet-Kif18B(605-828),[1],2 fold
YPet-Kif18B(605-828)-His6 (from UniProt Q86Y91-6 605-828) (domain or fragment),fold increase in the Kd for MTs with importin α/β against without,[1],9 fold
GFP-Kif18B (full-length human Kif18B N-terminally tagged with EGFP) (from UniProt Q86Y91-6 1-833) (natural protein),percent pelleted with MTs,[2],79%
same,"percent of two-sided MTs with GFP-Kif18B binding events, with importin α/β",[3],73%
same,percent of two-sided MTs with bound GFP-Kif18B,[3],46%
same,percent pelleted with MTs,[1],> 90%
same,dwell time at MT plus ends,[4],5.56 s
same,mean dwell time on the MT lattice,[4],1.77 s
same,dwell time at MT plus ends,[5],5.39 s
same,mean dwell time on the MT lattice,[5],2.3 s
